Assay results taken from patent US20230331852A1 (OSE IMMUNOTHERAPEUTICS, published 2023).

Key:
[1] = biological target: T1, Fc-CLEC1 labelled with Alexa Fluor 488 (human, Alexa Fluor 488 label (sites not given)); experiment: FACS competition: blocks Fc-CLEC1-A488 (10 nM) binding to CLEC-1 ligand on permeabilised Raji cells; IC50 median
T1 construct: also called Fc-CLEC1-A488; Alexa488-Fc-Clec-1
T1 chain: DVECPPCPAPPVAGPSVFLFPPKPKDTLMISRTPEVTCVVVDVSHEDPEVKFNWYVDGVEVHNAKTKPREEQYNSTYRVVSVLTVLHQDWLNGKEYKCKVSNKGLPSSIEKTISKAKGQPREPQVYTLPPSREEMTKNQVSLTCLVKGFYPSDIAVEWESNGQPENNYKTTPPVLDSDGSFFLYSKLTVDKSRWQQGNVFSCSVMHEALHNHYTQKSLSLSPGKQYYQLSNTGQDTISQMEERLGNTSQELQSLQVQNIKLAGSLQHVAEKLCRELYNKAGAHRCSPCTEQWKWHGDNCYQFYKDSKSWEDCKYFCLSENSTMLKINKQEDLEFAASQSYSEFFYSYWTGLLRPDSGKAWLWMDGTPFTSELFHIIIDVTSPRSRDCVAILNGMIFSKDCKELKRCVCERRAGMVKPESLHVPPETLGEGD
Protocol: To measure competition, purified anti-Clec antibodies at different concentrations were pre-incubated in Perm Wash Buffer with Alexa488-Fc-Clec-1 for 15 min at room temperature. Pre-incubated mixes were then incubated on permeabilized and Fc-blocked Raji cells for 30 min on ice. Binding on cells were then fixed by PFA 2% in cold PBS for 10 min on ice and analyzed on CytoFlex cytofluorometer (Beckman Coulter France, Villepinte).
Methods. To measure competition on permeabilised Raji (CytoFix/cytoperm kit, BD Biosciences) which expressed CLEC1 ligand, Fc-CLEC1-labelled A488 which bound specifically to permeabilised Raji was used. To measure competition, Fc-CLEC1 labelled A488 at 10 nM or 20 nM was mixed with mouse anti-hCLEC1 at different concentrations for 15 min at RT then added on these cells for 30 min at 4° C. […] To measure competition on PMBC, we used human PBMC pre-treated by UV for 18 h to obtain apoptotic PBMC, which expressed CLEC1 ligand. Fc-CLEC1-labelled A488 bound specifically apoptotic UV-treated PBMC. To measure competition, Fc-CLEC1 labelled A488 at 10 nM was mixed with mouse anti-hCLEC1 at different concentrations for 15 min at RT then added on these cells for 30 min at 4° C.

[2] = biological target: T2, human CLEC-1A expressed on the cell membrane (human, UniProt Q8NC01 1-280); experiment: flow cytometry on CHO-Clec-1 cells (from FIGURE 21)
T2 construct: Endogenous on human U266 myeloma cells, on monocyte-derived TGFb-DC and macrophages; on CHO cells after transduction with a Clec-1 expressing lentivirus; also called U266 CLEC1; CLEC-1A on U266 cells
T2 sequence: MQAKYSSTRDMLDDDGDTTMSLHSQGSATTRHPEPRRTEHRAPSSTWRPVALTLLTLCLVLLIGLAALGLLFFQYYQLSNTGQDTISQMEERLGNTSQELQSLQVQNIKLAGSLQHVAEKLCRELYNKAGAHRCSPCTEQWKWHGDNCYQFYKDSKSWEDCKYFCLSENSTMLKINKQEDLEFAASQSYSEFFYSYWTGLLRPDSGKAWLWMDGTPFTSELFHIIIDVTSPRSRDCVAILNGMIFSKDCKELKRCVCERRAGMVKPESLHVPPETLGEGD
Protocol: To measure binding of anti-clec on CHO-Clec-1 cells, human Fc Receptor Binding Inhibitor diluted at 1/200 (BD pharmingen; USA; reference 564220) was first added for 30 min at room-temperature to block human Fc receptors on CHO-Clec-1 cells to reduce background. Then, antibodies were incubated for 30 min at 4° C., and washed before stained 15 min at 4° C. with PE-labelled anti-human IgG Fc (Biolegend; USA; reference 409303). Samples were analyzed on citoflex (Beckman coulter)

[3] = biological target: T2, human CLEC-1A expressed on the cell …; experiment: flow cytometry on U266 cells
Protocol: (§1) Method: To measure binding of anti-CLEC1 on human U266 cell lines (pre-blocked with Fcblock to blocking FcR), antibodies at different concentrations were incubated for 30 min at 4° C., and washed before stained 30 min at 4° C. with PE-labelled anti-human IgG (Biolegend; reference 409304). Samples were analyzed on Cytoflex cytofluorometer (Beckman Coulter). The MFI of anti-CLEC1 was compared between all anti-CLEC1 antibodies and percentage of stained cells was analysed in all conditions.

[4] = biological target: T2, human CLEC-1A expressed on the cell …; experiment: flow cytometry on U266 cells, PE anti-human IgG; % positive cells
Protocol: as §1

[5] = biological target: T3, recombinant human CLEC-1 protein with His Tag (#1704-CL R&D Systems) (human, UniProt Q8NC01 74-280); experiment: Blitz biolayer interferometry, His-CLEC1 on Ni-NTA biosensor, antibody at 20 ug/mL
T3 construct: Bought protein; also called His-CLEC1; His Clec-1; not shown: His tag
T3 sequence: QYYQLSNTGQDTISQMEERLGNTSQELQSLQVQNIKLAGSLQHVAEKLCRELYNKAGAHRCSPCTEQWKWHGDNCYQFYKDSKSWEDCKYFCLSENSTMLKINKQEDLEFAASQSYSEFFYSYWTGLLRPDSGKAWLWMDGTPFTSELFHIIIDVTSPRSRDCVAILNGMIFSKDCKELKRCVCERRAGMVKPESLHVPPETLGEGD

[6] = biological target: T3, recombinant human CLEC-1 protein with …; experiment: BLI (Blitz), CLEC1-His on Ni-NTA biosensor, antibody at 20 ug/mL; chimeric antibody, FIG. 17
Protocol: Analysis was performed with a BLItz System (Fortébio, #C22-2 No 61010-1, Molecular Devices, San José, USA).
The affinity of the anti-hCLEC1 antibodies, was measured with Blitz system (Forté Bio, C22-2 No 61010-1).

IC50 [1]: 3.9 nM | EC50 [2]: 0.895 µg/mL | EC50 [3]: 0.113 µg/mL | EC50 (read off the curve) [4]: ~0.06 µg/mL | Kd [5]: 15.9 nM | koff [5]: 0.00124 s⁻¹ | kon [5]: 78000 M⁻¹ s⁻¹ | Kd [6]: ~10 nM
B1: chimeric anti-CLEC-1A antibody 14H9 (antibody, human IgG4 S228P, kappa, V domains shown)
VH: QVQLKESGPGLVAPSQSLSITCTISGFSLTTYGIHWVRQPPGKGLEWLVVIWSDGSTIYNSALKSRLSISKDNSKSQVFLKMNSLQTDDTAIYYCARHGGYYNYFDYWGQGTTLTVSS
VL: DIQMNQSPSSLSASLGDTITITCHASQNINVWLSWYQQKPGNIPKLLIYKASNLHTGVPSRFSGSGSGTTFTLTIDSLQPEDIATYYCQQGQSYWTFGGGTKLEIKR
notes: also called 14H9chim; 14H9-VHwt-FcG4m / 14H9-VLwt-CLhk
